Here are results for 5 sequences from the supplement of paper PMC11246515.

± gives the standard deviation of the averaged measurements.

The nature of this data set: total protein half-life in vivo (active degradation + dilution); higher = more stable protein.
Where [1] appears, read: E. coli NCM3722 delta-clpP delta-lon delta-hslV, growth: N-lim chemostat, doubling time 6 h.
Where [2] appears, read: E. coli NCM3722 delta-clpP, growth: N-lim chemostat, doubling time 6 h.
[3] abbreviates: E. coli NCM3722 delta-hslV, growth: N-lim chemostat, doubling time 6 h.
The mark [4] stands for this setting: E. coli NCM3722 delta-lon, growth: N-lim chemostat, doubling time 6 h.
Where [5] appears, read: E. coli NCM3722 delta-smpB, growth: N-lim chemostat, doubling time 6 h.
Where [6] appears, read: wild type E. coli NCM3722, growth: C-lim chemostat, doubling time 3 h.
[7] abbreviates: wild type E. coli NCM3722, growth: C-lim chemostat, doubling time 6 h.
[8] abbreviates: wild type E. coli NCM3722, growth: C-lim chemostat, doubling time 12 h.
[9] abbreviates: wild type E. coli NCM3722, growth: N-lim chemostat, doubling time 6 h.
[10] abbreviates: wild type E. coli NCM3722, growth: N-lim chemostat, doubling time 12 h.
Setting [11] is: wild type E. coli NCM3722, growth: P-lim chemostat, doubling time 6 h.
The mark [12] stands for this setting: wild type E. coli NCM3722, growth: P-lim chemostat, doubling time 12 h.

Regarding “MIERGKFRSLTLINWNGFFARTFDLDELVTTLSGGNGAGKSTTMAAFVTALIPDLTLLHFRNTTEAGATSGSRDKGLHGKLKAGVCYSMLDTINSRHQRVVVGVRLQQVAGRDRKVDIKPFAIQGLPMSVQPTQLVTETLNERQARVLPLNELKDKLEAMEGVQFKQFNSITDYHSLMFDLGIIARRLRSASDRSKFYRLIEASLYGGISSAITRSLRDYLLPENSGVRKAFQDMEAALRENRMTLEAIRVTQSDRDLFKHLISEATNYVAADYMRHANERRVHLDKALEFRRELHTSRQQLAAEQYKHVDMARELAEHNGAEGDLEADYQAASDHLNLVQTALRQQEKIERYEADLDELQIRLEEQNEVVAEAIERQQENEARAEAAELEVDELKSQLADYQQALDVQQTRAIQYNQAIAALNRAKELCHLPDLTADCAAEWLETFQAKELEATEKMLSLEQKMSMAQTAHSQFEQAYQLVVAINGPLARNEAWDVARELLREGVDQRHLAEQVQPLRMRLSELEQRLREQQEAERLLADFCKRQGKNFDIDELEALHQELEARIASLSDSVSNAREERMALRQEQEQLQSRIQSLMQRAPVWLAAQNSLNQLSEQCGEEFTSSQDVTEYLQQLLEREREAIVERDEVGARKNAVDEEIERLSQPGGSEDQRLNALAERFGGVLLSEIYDDVSLEDAPYFSALYGPSRHAIVVPDLSQVTEHLEGLTDCPEDLYLIEGDPQSFDDSVFSVDELEKAVVVKIADRQWRYSRFPEVPLFGRAARESRIESLHAEREVLSERFATLSFDVQKTQRLHQAFSRFIGSHLAVAFESDPEAEIRQLNSRRVELERALSNHENDNQQQRIQFEQAKEGVTALNRILPRLNLLADDSLADRVDEIRERLDEAQEAARFVQQFGNQLAKLEPIVSVLQSDPEQFEQLKEDYAYSQQMQRDARQQAFALTEVVQRRAHFSYSDSAEMLSGNSDLNEKLRERLEQAEAERTRAREALRGHAAQLSQYNQVLASLKSSYDTKKELLNDLQRELQDIGVRADSGAEERARIRRDELHAQLSNNRSRRNQLEKALTFCEAEMDNLTRKLRKLERDYFEMREQVVTAKAGWCAVMRMVKDNGVERRLHRRELAYLSADDLRSMSDKALGALRLAVADNEHLRDVLRMSEDPKRPERKIQFFVAVYQHLRERIRQDIIRTDDPVEAIEQMEIELSRLTEELTSREQKLAISSRSVANIIRKTIQREQNRIRMLNQGLQNVSFGQVNSVRLNVNVRETHAMLLDVLSEQHEQHQDLFNSNRLTFSEALAKLYQRLNPQIDMGQRTPQTIGEELLDYRNYLEMEVEVNRGSDGWLRAESGALSTGEAIGTGMSILVMVVQSWEDESRRLRGKDISPCRLLFLDEAARLDARSIATLFELCERLQMQLIIAAPENISPEKGTTYKLVRKVFQNTEHVHVVGLRGFAPQLPETLPGTDEAPSQAS”, the “total protein half-life in vivo” value runs as follows: under setting [1], 6.61 ± 0.52 h; under setting [2], 6.45 ± 0.38 h; under setting [3], 4.36 ± 0.13 h; under setting [4], 4.16 ± 0.34 h; under setting [5], 4.2 ± 0.079 h; under setting [6], 2.91 ± 0.16 h. In addition, the “total protein half-life in vivo” value is 5.16 ± 0.064 h under setting [7]; 8.24 ± 0.095 h under setting [8]; 4.374 ± 0.017 h under setting [9]; 5.78 ± 0.3 h under setting [10]; 4.74 ± 0.084 h under setting [11]; 6.65 ± 0.25 h under setting [12].
Regarding “MSKIFDFVKPGVITGDDVQKVFQVAKENNFALPAVNCVGTDSINAVLETAAKVKAPVIVQFSNGGASFIAGKGVKSDVPQGAAILGAISGAHHVHQMAEHYGVPVILHTDHCAKKLLPWIDGLLDAGEKHFAATGKPLFSSHMIDLSEESLQENIEICSKYLERMSKIGMTLEIELGCTGGEEDGVDNSHMDASALYTQPEDVDYAYTELSKISPRFTIAASFGNVHGVYKPGNVVLTPTILRDSQEYVSKKHNLPHNSLNFVFHGGSGSTAQEIKDSVSYGVVKMNIDTDTQWATWEGVLNYYKANEAYLQGQLGNPKGEDQPNKKYYDPRVWLRAGQTSMIARLEKAFQELNAIDVL [P0AB71]”, the “total protein half-life in vivo” value under setting [1] was 5.42 ± 0.2 h; the “total protein half-life in vivo” value under setting [2] worked out at 5.14 ± 0.69 h; the “total protein half-life in vivo” value under setting [3] was 5.06 ± 0.15 h; the “total protein half-life in vivo” value under setting [4] was found to be 5.07 ± 0.24 h; the “total protein half-life in vivo” value under setting [5] was 4.73 ± 0.32 h; the “total protein half-life in vivo” value under setting [6] is 3.19 ± 0.097 h. Further, the “total protein half-life in vivo” value reads like this: under setting [7], 5.67 ± 0.37 h; under setting [8], 9.46 ± 0.69 h; under setting [9], 4.87 ± 0.47 h; under setting [10], 8.4 ± 0.15 h; under setting [11], 5.84 ± 0.2 h; under setting [12], 12.19 ± 0.092 h.
Consider “MTNPLLTPFELPPFSKILPEHVVPAVTKALNDCRENVERVVAQGAPYTWENLCQPLAEVDDVLGRIFSPVSHLNSVKNSPELREAYEQTLPLLSEYSTWVGQHEGLYKAYRDLRDGDHYATLNTAQKKAVDNALRDFELSGIGLPKEKQQRYGEIATRLSELGNQYSNNVLDATMGWTKLVTDEAELAGMPESALAAAKAQAEAKELEGYLLTLDIPSYLPVMTYCDNQALREEMYRAYSTRASDQGPNAGKWDNSKVMEEILALRHELAQLLGFENYAFKSLATKMAENPQQVLDFLTDLAKRARPQGEKELAQLRAFAKAEFGVDELQPWDIAYYSEKQKQHLYSISDEQLRPYFPENKAVNGLFEVVKRIYGITAKERKDVDVWHPDVRFFELYDENNELRGSFYLDLYARENKRGGAWMDDCVGQMRKADGSLQKPVAYLTCNFNRPVNGKPALFTHDEVITLFHEFGHGLHHMLTRIETAGVSGISGVPWDAVELPSQFMENWCWEPEALAFISGHYETGEPLPKELLDKMLAAKNYQAALFILRQLEFGLFDFRLHAEFRPDQGAKILETLAEIKKLVAVVPSPSWGRFPHAFSHIFAGGYAAGYYSYLWADVLAADAFSRFEEEGIFNRETGQSFLDNILSRGGSEEPMDLFKRFRGREPQLDAMLEHYGIKG”, for which the “total protein half-life in vivo” value runs as follows: under setting [1], 4.42 ± 0.21 h; under setting [2], 4.18 ± 0.052 h; under setting [3], 4.03 ± 0.15 h; under setting [4], 3.74 ± 0.18 h; under setting [5], 3.55 ± 0.062 h; under setting [6], 2.795 ± 0.023 h. Also, the “total protein half-life in vivo” value amounted to 5.17 ± 0.21 h under setting [7]; 8.7 ± 0.94 h under setting [8]; 3.68 ± 0.23 h under setting [9]; 5.67 ± 0.55 h under setting [10]; 5.1797 ± 0.00065 h under setting [11]; 9.96 ± 1.1 h under setting [12].
In the case of “MNQTLLSSFGTPFERVENALAALREGRGVMVLDDEDRENEGDMIFPAETMTVEQMALTIRHGSGIVCLCITEDRRKQLDLPMMVENNTSAYGTGFTVTIEAAEGVTTGVSAADRITTVRAAIADGAKPSDLNRPGHVFPLRAQAGGVLTRGGHTEATIDLMTLAGFKPAGVLCELTNDDGTMARAPECIEFANKHNMALVTIEDLVAYRQAHERKAS [P0A7J0]”, the “total protein half-life in vivo” value was 5.39 ± 0.59 h under setting [1]; 4.61 ± 0.68 h under setting [2]; 1.27 ± 0.23 h under setting [3]; 1.22 ± 0.28 h under setting [4]; 1.02 ± 0.1 h under setting [5]; 1.2 ± 0.25 h under setting [6]. The “total protein half-life in vivo” value amounted to 1.2 ± 0.21 h under setting [7]; 1.35 ± 0.13 h under setting [8]; 1.291 ± 0.0046 h under setting [9]; 1.52 ± 0.086 h under setting [10]; 0.987 h under setting [11]; 1.82 ± 1.1 h under setting [12].
Turning to “MATLLQLHFAFNGPFGDAMAEQLKPLAESINQEPGFLWKVWTESEKNHEAGGIYLFTDEKSALAYLEKHTARLKNLGVEEVVAKVFDVNEPLSQINQAKLA [P0ACX3]”, the “total protein half-life in vivo” value reads like this: under setting [1], 5.41 ± 1.1 h; under setting [2], 3.68 ± 0.39 h; under setting [3], 3.94 ± 0.085 h; under setting [4], 5.96 ± 0.17 h; under setting [5], 4.07 ± 0.095 h; under setting [6], 3.22 ± 0.24 h. The “total protein half-life in vivo” value is, setting by setting: under setting [7], 4.809 ± 0.035 h; under setting [8], 8.79 ± 2.3 h; under setting [9], 3.27 ± 0.054 h; under setting [10], 5.75 ± 0.85 h; under setting [11], 4.79 ± 0.49 h; under setting [12], 10.1 ± 1.1 h.
